According to publication PMC12135382 (The Journal of Biological Chemistry, 2025):

Target: T1, GR W712A-LgBiT (human, UniProt P04150 1-777, W712A)
T1 sequence: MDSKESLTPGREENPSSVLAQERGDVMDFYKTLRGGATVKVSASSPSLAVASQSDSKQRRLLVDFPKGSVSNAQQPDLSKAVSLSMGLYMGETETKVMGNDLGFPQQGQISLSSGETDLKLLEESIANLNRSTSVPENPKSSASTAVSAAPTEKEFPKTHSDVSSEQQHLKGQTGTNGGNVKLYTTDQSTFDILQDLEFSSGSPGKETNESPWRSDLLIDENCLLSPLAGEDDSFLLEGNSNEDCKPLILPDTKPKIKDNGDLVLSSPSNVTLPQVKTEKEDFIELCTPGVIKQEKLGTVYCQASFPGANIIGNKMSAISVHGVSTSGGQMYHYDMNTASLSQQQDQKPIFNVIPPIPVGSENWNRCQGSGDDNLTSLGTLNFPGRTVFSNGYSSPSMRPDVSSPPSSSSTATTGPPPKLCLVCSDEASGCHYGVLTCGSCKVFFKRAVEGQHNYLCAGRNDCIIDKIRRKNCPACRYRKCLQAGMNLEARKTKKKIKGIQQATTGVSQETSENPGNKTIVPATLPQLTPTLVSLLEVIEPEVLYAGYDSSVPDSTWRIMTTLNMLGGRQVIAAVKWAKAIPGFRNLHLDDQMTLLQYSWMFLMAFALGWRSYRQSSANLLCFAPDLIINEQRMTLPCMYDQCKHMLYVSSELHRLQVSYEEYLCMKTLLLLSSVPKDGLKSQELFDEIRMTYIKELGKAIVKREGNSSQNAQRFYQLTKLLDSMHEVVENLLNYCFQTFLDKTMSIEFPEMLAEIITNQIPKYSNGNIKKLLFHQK
Assay: split reporter

reconstituted luciferase activity relative to WT receptors: 32%
B1: MR-SmBiT (mineralocorticoid receptor with C-terminal NanoBit small tag) (receptor)
chain: METKGYHSLPEGLDMERRWGQVSQAVERSSLGPTERTDENNYMEIVNVSCVSGAIPNNSTQGSSKEKQELLPCLQQDNNRPGILTSDIKTELESKELSATVAESMGLYMDSVRDADYSYEQQNQQGSMSPAKIYQNVEQLVKFYKGNGHRPSTLSCVNTPLRSFMSDSGSSVNGGVMRAVVKSPIMCHEKSPSVCSPLNMTSSVCSPAGINSVSSTTASFGSFPVHSPITQGTPLTCSPNVENRGSRSHSPAHASNVGSPLSSPLSSMKSSISSPPSHCSVKSPVSSPNNVTLRSSVSSPANINNSRCSVSSPSNTNNRSTLSSPAASTVGSICSPVNNAFSYTASGTSAGSSTLRDVVPSPDTQEKGAQEVPFPKTEEVESAISNGVTGQLNIVQYIKPEPDGAFSSSCLGGNSKINSDSSFSVPIKQESTKHSCSGTSFKGNPTVNPFPFMDGSYFSFMDDKDYYSLSGILGPPVPGFDGNCEGSGFPVGIKQEPDDGSYYPEASIPSSAIVGVNSGGQSFHYRIGAQGTISLSRSARDQSFQHLSSFPPVNTLVESWKSHGDLSSRRSDGYPVLEYIPENVSSSTLRSVSTGSSRPSKICLVCGDEASGCHYGVVTCGSCKVFFKRAVEGQHNYLCAGRNDCIIDKIRRKNCPACRLQKCLQAGMNLGARKSKKLGKLKGIHEEQPQQQQPPPPPPPPQSPEEGTTYIAPAKEPSVNTALVPQLSTISRALTPSPVMVLENIEPEIVYAGYDSSKPDTAENLLSTLNRLAGKQMIQVVKWAKVLPGFKNLPLEDQITLIQYSWMCLSSFALSWRSYKHTNSQFLYFAPDLVFNEEKMHQSAMYELCQGMHQISLQFVRLQLTFEEYTIMKVLLLLSTIPKDGLKSQAAFEEMRTNYIKELRKMVTKCPNNSGQSWQRFYQLTKLLDSMHDLVSDLLEFCFYTFRESHALKVEFPAMLVEIISDQLPKVESGNAKPLYFHRK
